The supplement of paper PMC12042874
± gives the uncertainty stated by the source.

Assay: amyloid nucleation score (Sup35N fusion, yeast selection) (log enrichment); library NNK2; higher = more nucleation; inactive = no reads after selection
Outline: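 DiMSum was used to calculate nucleation scores as log enrichment of output over input reads, centred on the mode score of non-aggregating sequences. Sequences with fewer than 100 input reads were not scored. Input and output came from Illumina sequencing of plasmid inserts in psi-negative yeast expressing peptides of 20 random codons fused to Sup35N, induced 24 hours with 100 μM copper sulfate and then grown 7 days at 30°C on medium lacking adenine and uracil.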

Substance	amyloid nucleation score
LNSQSVFKC	-0.967 ± 0.55
FGWAL	inactive
EHTFLFA	-0.297 ± 1.1
SWVEGRLDGVFWRLVLFTEN	0.433 ± 0.74
VLWCDKWVGNNMKDGELTLW	0.446 ± 0.43
KRYGAVHDVCMRVSFNASQV	1.2 ± 0.32
RVLREKCSIGVAGKYSY	-0.512 ± 0.49
CLTTRTSGHNGYQRHDLI	inactive
TMSGCSLLCWEYNASQDLSN	-0.071 ± 0.62
YLIIKCDKRCVEDFDALLE	4.4 ± 0.071
YLIISMRFISSTQYRFFSVH	0.498 ± 0.19
FDVLMRSTGRANKKFLVCRQ	-0.033 ± 0.38
SYMCKAHKRLIIGGKWINGW	-0.031 ± 0.53
NFIVIALRGTDNTYSLSGLS	6.407 ± 0.043
MRKWTVSGIRGGRN	0.879 ± 0.23
MSIRIGEWPVHSGAYEESLK	0.223 ± 0.45
NFSTGEGMYRNYNWDSQVRV	inactive
SRICIFDDCNRRLARYWGLR	0.057 ± 0.76
NAIRFLVMLVGTWF	0.25 ± 0.24
YATKFN	0.058 ± 0.79
ATRCGDFDQACHSGIT	0.749 ± 0.28
HSCVYYTVYLRLFSMKGSEN	5.361 ± 0.038
GTCLHCGEIRS	-0.293 ± 0.29
RRYMVMSDWLDKPWWGYFGV	-0.855 ± 0.24

Substance	amyloid nucleation score
DECAVPRSE	0.7 ± 0.51
VLVCRFQSIFGILVVASCVK	-1.53 ± 0.55
YCLVTRLHR	0.185 ± 0.8
LLRLRECQV	2.73 ± 0.14
GTTSCISDLQWMGYIVKL	0.039 ± 0.46
VLSVISLFGHILVMFLERKV	-0.13 ± 0.76
SWVFVWLSH	-0.256 ± 1.1
YYIQHHSF	3.37 ± 0.082
ALWCRENFINCYIPYLQMFF	6.219 ± 0.036
LFRDTSQLGNSVIVTYYM	9.029 ± 0.052
VGGVIYAYGFVFF	7.381 ± 0.029
CFLVDFHVARSVDSYVELGS	-0.436 ± 1.1
FRRCGPDGGIWLDLAACKKI	0.1 ± 0.38
WGVCSQGYNVRIRVVARQKF	inactive
YPITPFQA	-0.872 ± 1.1
YVDVGC	0.513 ± 0.52
NSFVCMLPGVFVKCRCSNAD	4.832 ± 0.044
GGNIGVSYLRWCARINCWWK	5.49 ± 0.062
GRNFYESNCAMFDRYSCFGS	0.255 ± 1.1
KFNCLGLWDEYHNSM	0.259 ± 0.43
WHRVFKGLS	0.658 ± 0.26
VSTLRQGWSILQTPNYVRS	-0.219 ± 0.76
YVLSRDRSWIHGGVGELGAW	0.969 ± 0.53
MDVMVDW	-0.343 ± 0.63

Substance	amyloid nucleation score
GSVTTCSAWYKRRNLDICHR	-0.277 ± 0.22
LLTYYFVLTLVPSMFTSFVF	1.49 ± 0.15
SSYLTIPIIRVFLR	0.126 ± 0.8
PFSWVASDNTYQSTSLSIVH	0.995 ± 0.51
LVHFVVSALKT	inactive
VYCEDGY	0.641 ± 0.36
VVNRYRNTFFCVYWTSAGVL	6.65 ± 0.073
SVLANIMLVVVGNSGKYRSG	0.627 ± 0.74
ALDSNSWPYDGGMWRTT	-0.232 ± 1.1
RLSLNFDVRLC	1.21 ± 0.61
AGFWEDEVFRV	-0.714 ± 0.48
YRLNVNKSSNQGV	-0.712 ± 0.45
YGRSTHPGSRSF	-1.25 ± 0.63
LWCSDCISTEIIHNQRFA	-0.152 ± 1
VVYASRLC	0.681 ± 0.35
CGNISQVKEDLRMTTLIFRV	inactive
LFFSCHRVDCHSALNMFIVS	5.53 ± 0.065
SSLVGFERGRSMGRGMWVDL	0.041 ± 0.63
FVEMYGLWPSFGVKRKVLKV	-0.904 ± 0.53
KLCLGIGCRRQDTQAFGPPL	5.65 ± 0.083
IFTKNFIPCDFFMS	-2.05 ± 0.76
KFHHGFLGELPAPEYSSESA	0.25 ± 0.42
FMTNGFFVSLWFTCGDSVLS	5.68 ± 0.078
